Experimental data as given in paper doi:10.1101/2023.11.01.565136.

Biological target: T1, Full-length human E6AP (E6-associated protein) (human), Q05086
T1 chain: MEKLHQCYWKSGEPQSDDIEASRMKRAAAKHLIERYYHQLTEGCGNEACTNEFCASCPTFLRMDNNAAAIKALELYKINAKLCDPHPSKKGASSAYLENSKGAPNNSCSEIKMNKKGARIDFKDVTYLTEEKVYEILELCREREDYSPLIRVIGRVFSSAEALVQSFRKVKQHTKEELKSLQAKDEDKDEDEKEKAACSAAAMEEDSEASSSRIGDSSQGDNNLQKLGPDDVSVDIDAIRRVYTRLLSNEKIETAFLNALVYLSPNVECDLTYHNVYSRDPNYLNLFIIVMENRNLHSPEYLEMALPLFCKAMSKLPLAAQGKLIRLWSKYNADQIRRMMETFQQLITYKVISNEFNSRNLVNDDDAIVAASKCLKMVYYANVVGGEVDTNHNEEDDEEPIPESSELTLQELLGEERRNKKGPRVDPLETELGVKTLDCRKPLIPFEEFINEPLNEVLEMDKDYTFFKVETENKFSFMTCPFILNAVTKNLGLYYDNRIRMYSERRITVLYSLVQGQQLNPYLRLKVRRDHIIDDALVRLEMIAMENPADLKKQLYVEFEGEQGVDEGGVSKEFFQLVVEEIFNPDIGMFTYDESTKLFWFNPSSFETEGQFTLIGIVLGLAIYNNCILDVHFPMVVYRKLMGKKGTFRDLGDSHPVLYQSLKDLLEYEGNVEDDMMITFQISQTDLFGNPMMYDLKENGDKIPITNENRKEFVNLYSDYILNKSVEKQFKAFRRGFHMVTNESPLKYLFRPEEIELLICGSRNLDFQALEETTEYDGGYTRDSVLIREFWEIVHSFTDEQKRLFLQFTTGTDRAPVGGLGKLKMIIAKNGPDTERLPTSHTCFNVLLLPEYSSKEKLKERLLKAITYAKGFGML
Assay: mass photometry
Conditions: remark: other sources report otherwise

B1: Full-length human E6AP (E6-associated protein), Q05086 1-875 (enzyme)
chain: MEKLHQCYWKSGEPQSDDIEASRMKRAAAKHLIERYYHQLTEGCGNEACTNEFCASCPTFLRMDNNAAAIKALELYKINAKLCDPHPSKKGASSAYLENSKGAPNNSCSEIKMNKKGARIDFKDVTYLTEEKVYEILELCREREDYSPLIRVIGRVFSSAEALVQSFRKVKQHTKEELKSLQAKDEDKDEDEKEKAACSAAAMEEDSEASSSRIGDSSQGDNNLQKLGPDDVSVDIDAIRRVYTRLLSNEKIETAFLNALVYLSPNVECDLTYHNVYSRDPNYLNLFIIVMENRNLHSPEYLEMALPLFCKAMSKLPLAAQGKLIRLWSKYNADQIRRMMETFQQLITYKVISNEFNSRNLVNDDDAIVAASKCLKMVYYANVVGGEVDTNHNEEDDEEPIPESSELTLQELLGEERRNKKGPRVDPLETELGVKTLDCRKPLIPFEEFINEPLNEVLEMDKDYTFFKVETENKFSFMTCPFILNAVTKNLGLYYDNRIRMYSERRITVLYSLVQGQQLNPYLRLKVRRDHIIDDALVRLEMIAMENPADLKKQLYVEFEGEQGVDEGGVSKEFFQLVVEEIFNPDIGMFTYDESTKLFWFNPSSFETEGQFTLIGIVLGLAIYNNCILDVHFPMVVYRKLMGKKGTFRDLGDSHPVLYQSLKDLLEYEGNVEDDMMITFQISQTDLFGNPMMYDLKENGDKIPITNENRKEFVNLYSDYILNKSVEKQFKAFRRGFHMVTNESPLKYLFRPEEIELLICGSRNLDFQALEETTEYDGGYTRDSVLIREFWEIVHSFTDEQKRLFLQFTTGTDRAPVGGLGKLKMIIAKNGPDTERLPTSHTCFNVLLLPEYSSKEKLKERLLKAITYAKGFGML
B1 showed a stoichiometry N of 2.
